From publication PMC3847041, “Role of N-Cadherin cis and trans Interfaces in the Dynamics of Adherens Junctions in Living Cells” (PLoS ONE, 2013)

What was measured:
[1] = target: N-cadherin-R14E fluorescent fusion protein (X-dimer mutant); assay: FRET or BRET; ratiometric FRET (Venus to Cerulean fluorescence over time) at a junction between one Venus- and one Cerulean-expressing living COS7 cell; 100 ms interval for 35 sec; baseline 10-15 sec, then the Ca2+ chelator BAPTA added to 20 mM final
[2] = target: N-cadherin-R14E fluorescent fusion protein (X-dimer mutant); assay: FRET or BRET; acceptor bleach FRET at junctions between living COS7 cells of two mixed populations, one expressing the Venus (acceptor) and the other the Cerulean (donor) copy; trans interaction across the junction; FRET ratio = (IpostDonor - IpreDonor)/IpostDonor
[3] = target: N-cadherin-V81D/V174D fluorescent fusion protein (cis double mutant); assay: FRET or BRET; ratiometric FRET (Venus to Cerulean fluorescence over time) at a junction between one Venus- and one Cerulean-expressing living COS7 cell; 100 ms interval for 35 sec; baseline 10-15 sec, then the Ca2+ chelator BAPTA added to 20 mM final
[4] = target: N-cadherin-V81D/V174D fluorescent fusion protein (cis double mutant); assay: FRET or BRET; acceptor bleach FRET at junctions between living COS7 cells of two mixed populations, one expressing the Venus (acceptor) and the other the Cerulean (donor) copy; trans interaction across the junction; FRET ratio = (IpostDonor - IpreDonor)/IpostDonor
[5] = target: N-cadherin-W2A fluorescent fusion protein (strand-swap mutant); assay: as above
[6] = target: N-cadherin-W2A fluorescent fusion protein (strand-swap mutant); assay: FRET or BRET; ratiometric FRET (Venus to Cerulean fluorescence over time) at a junction between one Venus- and one Cerulean-expressing living COS7 cell; 100 ms interval for 35 sec; baseline 10-15 sec, then the Ca2+ chelator BAPTA added to 20 mM final
[7] = target: the molecule itself; assay: as above
[8] = target: the molecule itself; assay: FRET or BRET; acceptor bleach FRET at junctions between living COS7 cells of two mixed populations, one expressing the Venus (acceptor) and the other the Cerulean (donor) copy; trans interaction across the junction; FRET ratio = (IpostDonor - IpreDonor)/IpostDonor

Work on “N-cadherin-R14E fluorescent fusion protein (X-dimer mutant) (natural protein)” yielded a ratiometric FRET ratio after 20 mM BAPTA [1] of 98.8%, a ratiometric FRET ratio before BAPTA [1] of 99.2% and an FRET ratio (acceptor bleach) [2] of 14%.

Work on “N-cadherin-V81D/V174D fluorescent fusion protein (cis double mutant) (natural protein)” yielded a ratiometric FRET ratio before BAPTA [3] of 99.6% and an FRET ratio (acceptor bleach) [4] of 22.4%.

Molecule “N-cadherin-W2A fluorescent fusion protein (strand-swap mutant)” has an FRET ratio (acceptor bleach) [5] of 29.4%.

For “N-cadherin-W2A fluorescent fusion protein (strand-swap mutant) (natural protein)”, the ratiometric FRET ratio before BAPTA [6] was 98.6%.

B1: N-cadherin-WT fluorescent fusion protein (N-cadherin-Venus / N-cadherin-Cerulean) (natural protein, UniProt P15116 160-906, looked up)
chain: DWVIPPINLPENSRGPFPQELVRIRSDRDKNLSLRYSVTGPGADQPPTGIFIINPISGQLSVTKPLDRELIARFHLRAHAVDINGNQVENPIDIVINVIDMNDNRPEFLHQVWNGSVPEGSKPGTYVMTVTAIDADDPNALNGMLRYRILSQAPSTPSPNMFTINNETGDIITVAAGLDREKVQQYTLIIQATDMEGNPTYGLSNTATAVITVTDVNDNPPEFTAMTFYGEVPENRVDVIVANLTVTDKDQPHTPAWNAAYRISGGDPTGRFAILTDPNSNDGLVTVVKPIDFETNRMFVLTVAAENQVPLAKGIQHPPQSTATVSVTVIDVNENPYFAPNPKIIRQEEGLHAGTMLTTLTAQDPDRYMQQNIRYTKLSDPANWLKIDPVNGQITTIAVLDRESPNVKNNIYNATFLASDNGIPPMSGTGTLQIYLLDINDNAPQVLPQEAETCETPEPNSINITALDYDIDPNAGPFAFDLPLSPVTIKRNWTINRLNGDFAQLNLKIKFLEAGIYEVPIIITDSGNPPKSNISILRVKVCQCDSNGDCTDVDRIVGAGLGTGAIIAILLCIIILLILVLMFVVWMKRRDKERQAKQLLIDPEDDVRDNILKYDEEGGGEEDQDYDLSQLQQPDTVEPDAIKPVGIRRLDERPIHAEPQYPVRSAAPHPGDIGDFINEGLKAADNDPTAPPYDSLLVFDYEGSGSTAGSLSSLNSSSSGGDQDYDYLNDWGPRFKKLADMYGGGDD
notes: a fluorescent protein is inserted into the second extracellular cadherin repeat at position 151 of the mature protein; numbers count on: the mature protein; Self-association in trans: one cell population expresses the Venus copy (FRET acceptor), the other the Cerulean copy (FRET donor); both are written as this one molecule; also called N-cadherin-Venus-WT; WT-N-cadherin; source: COS7 cells, …
In the case of B1, the “ratiometric FRET ratio after 20 mM BAPTA” value [7] is reported as 89.6%, the “ratiometric FRET ratio before BAPTA” value [7] is reported as 99.6% and the “FRET ratio (acceptor bleach)” value [8] is reported as 19.9%.
